Patent US20120276000A1

Target: human CLEC14A (endogenous, in HUVECs) (human) (UniProt Q86T13)
Experiment: cell-based or functional assay

Sequence of UniProt Q86T13 (Q86T13 22-490): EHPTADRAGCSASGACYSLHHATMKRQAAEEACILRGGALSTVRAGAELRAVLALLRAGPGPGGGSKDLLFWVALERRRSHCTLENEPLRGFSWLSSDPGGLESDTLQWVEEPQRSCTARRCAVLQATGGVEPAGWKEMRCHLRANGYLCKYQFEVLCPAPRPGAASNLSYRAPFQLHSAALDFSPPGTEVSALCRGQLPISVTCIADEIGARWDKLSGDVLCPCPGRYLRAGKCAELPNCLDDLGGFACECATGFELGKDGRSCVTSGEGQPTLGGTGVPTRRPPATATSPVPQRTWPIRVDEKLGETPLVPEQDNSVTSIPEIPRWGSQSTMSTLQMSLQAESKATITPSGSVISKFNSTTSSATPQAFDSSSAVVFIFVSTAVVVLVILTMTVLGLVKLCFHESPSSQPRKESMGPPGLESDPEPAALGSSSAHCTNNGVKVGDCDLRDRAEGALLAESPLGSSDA

B1: anti-CLEC14A monoclonal antibody CRT-3 (antibody, from another filing, IgG1, V domains shown)
VH: EVQLQQSGTVLARPGASVKMSCKASGYTFTSYWMHWVKQRPGQGLEWIGAIYPGNSDTSYNQKFKGKAKLTAVTSTSTAYMELSSLTNEDSAVFYCTHYYGSDYAMDYWGQGTSVTV
VL: QIVLTQSPAIMSASLGERVTMTCTASSSVSSSYLHWYQQKPGSSPKLWIYSTSNLASGVPARFSGSGSGTSYSLTISSMEAEDAATYYCHQYHRSPRTFGGGTKLEIKR
Binder B1 has a wound area remaining open at 12 h, HUVEC scratch wound healing assay, 10 µg/ml antibody of 25%.
